These results are taken from US20200157212A1 (Pfizer, published 2020).

Assay [1] has as its target T1, Cynomolgus monkey ROBO2 overexpressed on HEK293 cells (cynomolgus monkey, UniProt Q9HCK4 22-1378 (human entry)).
T1 chain: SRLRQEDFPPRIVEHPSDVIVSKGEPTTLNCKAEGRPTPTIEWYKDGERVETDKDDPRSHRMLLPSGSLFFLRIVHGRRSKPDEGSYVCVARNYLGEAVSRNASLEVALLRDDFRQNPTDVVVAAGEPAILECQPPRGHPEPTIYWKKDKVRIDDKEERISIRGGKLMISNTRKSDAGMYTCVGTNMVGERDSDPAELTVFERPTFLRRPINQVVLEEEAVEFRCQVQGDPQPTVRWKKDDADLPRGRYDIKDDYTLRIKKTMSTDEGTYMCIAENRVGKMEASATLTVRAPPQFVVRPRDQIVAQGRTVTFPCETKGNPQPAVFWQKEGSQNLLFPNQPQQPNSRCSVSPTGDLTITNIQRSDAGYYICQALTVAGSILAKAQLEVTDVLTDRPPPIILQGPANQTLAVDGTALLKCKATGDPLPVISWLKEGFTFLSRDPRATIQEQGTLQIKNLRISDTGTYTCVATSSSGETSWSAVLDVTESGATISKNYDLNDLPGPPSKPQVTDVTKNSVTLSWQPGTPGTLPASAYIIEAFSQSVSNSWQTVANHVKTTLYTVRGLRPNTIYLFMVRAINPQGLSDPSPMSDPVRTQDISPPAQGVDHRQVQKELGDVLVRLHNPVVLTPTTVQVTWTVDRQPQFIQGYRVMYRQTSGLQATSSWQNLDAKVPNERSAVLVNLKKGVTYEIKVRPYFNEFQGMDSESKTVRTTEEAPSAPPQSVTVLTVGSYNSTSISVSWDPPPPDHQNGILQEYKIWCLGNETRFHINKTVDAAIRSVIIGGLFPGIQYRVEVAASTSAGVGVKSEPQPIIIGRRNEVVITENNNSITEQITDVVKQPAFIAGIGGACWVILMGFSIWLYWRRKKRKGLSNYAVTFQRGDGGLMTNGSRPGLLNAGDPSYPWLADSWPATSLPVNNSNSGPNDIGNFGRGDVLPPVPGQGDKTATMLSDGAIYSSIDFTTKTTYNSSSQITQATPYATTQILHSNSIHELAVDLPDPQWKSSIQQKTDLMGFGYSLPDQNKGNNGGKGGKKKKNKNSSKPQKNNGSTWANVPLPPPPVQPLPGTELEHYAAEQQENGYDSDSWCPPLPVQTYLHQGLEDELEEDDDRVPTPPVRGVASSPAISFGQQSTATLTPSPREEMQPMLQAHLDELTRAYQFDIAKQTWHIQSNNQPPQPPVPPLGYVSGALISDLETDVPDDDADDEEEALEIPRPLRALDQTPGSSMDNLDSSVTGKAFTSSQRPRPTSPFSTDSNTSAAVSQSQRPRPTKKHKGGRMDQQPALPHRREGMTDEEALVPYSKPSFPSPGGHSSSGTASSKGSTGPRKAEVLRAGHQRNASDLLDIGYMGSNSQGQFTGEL
Nature of the assay: flow cytometry, HEK293 cells. The method, then: (§1) Using flow cytometry, improvement in the binding EC₅₀ to human ROBO2 relative to the parental 93H2 was evaluated. Starting at 6.7 nM, 11-point, 3-fold dilution series were made for each antibody and used to stain HEK293 overexpressing human ROBO2 as described above for the ROBO2 fold selectivity (Example 2). […] In addition to measuring improved binding to human ROBO2, it was important to ensure that high affinity binding to both cynomolgus monkey ROBO2 and rat ROBO2 was maintained. Using HEK293 cells overexpressing either cynomolgus monkey ROBO2 or rat ROBO2, the relative dose-dependent binding of 93H2, Abcs25 and Abcs35 was evaluated as described above. High affinity binding to both cynomolgus monkey and rat ROBO2 was maintained in Abcs25 and Abcs35 (Table 4). […] Briefly, Abcs35 was immobilized to 300 resonance units (RU) on a CM5 chip. Association of ROBO2 Ig1-Ig2-His (ROBO2) was measured over 5 minutes and dissociation was followed for a period of 10 minutes.
(§2) The binding profile of Abcs35-J compared to Abcs35 was determined for human ROBO2, orthologs from cynomolgus monkey and rat, human ROBO1 and specificity for the RSK epitope from ROBO2 but not KSR from ROBO1. Binding was assessed by flow cytometry as described in Examples 2 (homolog specificity), Example 3 (ortholog reactivity) and Example 5 (RSK vs KSR epitope specificity). […] Binding of the antibodies was detected using a secondary fluorochrome conjugated anti-human IgG F(ab′)₂ antibody and samples analyzed on a Fortessa cytometer (BD Biosciences).
On the technique in general: A flow cytometer gives signals particle by particle.

Assay [2] concerns the target T2, Human ROBO1 RSK mutant overexpressed on HEK293 cells (human, UniProt Q9Y6N7 26-1651).
T2 construct: K137R and R139K already in the entry; also called ROBO1-RSK cells
Nature of the assay: flow cytometry, HEK293 cells. Here is the method:
as §1, §2

Substitutions are numbered along the chain they refer to.

T2 sequence (Q9Y6N7 other isoform, or with tags, fused parts or gaps mutant limits assumed): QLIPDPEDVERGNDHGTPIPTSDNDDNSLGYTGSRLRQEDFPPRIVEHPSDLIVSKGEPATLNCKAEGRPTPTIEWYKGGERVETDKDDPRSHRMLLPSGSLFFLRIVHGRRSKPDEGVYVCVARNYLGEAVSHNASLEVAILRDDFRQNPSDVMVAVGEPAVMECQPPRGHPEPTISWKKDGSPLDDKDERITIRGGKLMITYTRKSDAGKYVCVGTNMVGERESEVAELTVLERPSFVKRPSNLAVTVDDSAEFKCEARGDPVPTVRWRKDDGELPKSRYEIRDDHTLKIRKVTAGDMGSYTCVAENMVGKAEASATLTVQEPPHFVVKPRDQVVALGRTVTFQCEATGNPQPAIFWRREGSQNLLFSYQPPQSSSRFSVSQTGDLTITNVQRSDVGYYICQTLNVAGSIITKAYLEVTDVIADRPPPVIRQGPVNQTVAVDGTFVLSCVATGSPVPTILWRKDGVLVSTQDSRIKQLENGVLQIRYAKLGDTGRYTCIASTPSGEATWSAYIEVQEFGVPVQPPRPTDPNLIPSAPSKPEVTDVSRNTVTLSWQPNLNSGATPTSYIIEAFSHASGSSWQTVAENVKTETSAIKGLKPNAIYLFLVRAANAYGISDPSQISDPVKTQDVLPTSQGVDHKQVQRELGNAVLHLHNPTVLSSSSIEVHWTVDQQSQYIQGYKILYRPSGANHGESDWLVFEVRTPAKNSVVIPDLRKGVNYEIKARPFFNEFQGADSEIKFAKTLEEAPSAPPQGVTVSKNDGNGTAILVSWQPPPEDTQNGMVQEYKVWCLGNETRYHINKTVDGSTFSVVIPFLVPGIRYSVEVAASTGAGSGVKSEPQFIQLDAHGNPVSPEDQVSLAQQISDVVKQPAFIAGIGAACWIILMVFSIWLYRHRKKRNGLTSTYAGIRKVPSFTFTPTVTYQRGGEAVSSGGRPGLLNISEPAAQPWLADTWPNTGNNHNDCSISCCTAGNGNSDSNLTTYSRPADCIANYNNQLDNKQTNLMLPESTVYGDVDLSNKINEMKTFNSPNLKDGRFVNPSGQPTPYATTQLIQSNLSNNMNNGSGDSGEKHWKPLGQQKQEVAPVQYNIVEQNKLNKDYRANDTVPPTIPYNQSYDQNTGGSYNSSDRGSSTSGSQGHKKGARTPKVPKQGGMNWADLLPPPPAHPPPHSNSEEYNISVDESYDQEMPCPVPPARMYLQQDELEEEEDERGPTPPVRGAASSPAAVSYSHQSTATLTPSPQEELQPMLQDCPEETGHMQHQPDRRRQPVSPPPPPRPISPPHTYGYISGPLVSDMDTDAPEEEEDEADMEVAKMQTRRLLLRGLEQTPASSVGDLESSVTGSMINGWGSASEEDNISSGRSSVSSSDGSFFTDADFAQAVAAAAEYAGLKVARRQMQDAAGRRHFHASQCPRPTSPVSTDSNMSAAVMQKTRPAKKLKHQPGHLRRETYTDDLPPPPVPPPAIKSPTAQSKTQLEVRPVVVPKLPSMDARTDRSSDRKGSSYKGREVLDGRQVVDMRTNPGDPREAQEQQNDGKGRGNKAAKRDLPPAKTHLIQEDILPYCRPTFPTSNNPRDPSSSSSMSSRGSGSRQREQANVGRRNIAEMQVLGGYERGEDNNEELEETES

B1: Abcs35 (antibody, human IgG1, kappa)
heavy: EVQLVQSGAEVKKPGASVKVSCKASGYTFTGYYMHWVRQAPGQGLEWMGWINPKNGDTEFPQKFQGRVTMTRDTSITTAYMDLSRLRSDDTAVYYCARESGDDAFDIWGQGTMVTVSSASTKGPSVFPLAPSSKSTSGGTAALGCLVKDYFPEPVTVSWNSGALTSGVHTFPAVLQSSGLYSLSSVVTVPSSSLGTQTYICNVNHKPSNTKVDKKVEPKSCDKTHTCPPCPAPEAAGAPSVFLFPPKPKDTLMISRTPEVTCVVVDVSHEDPEVKFNWYVDGVEVHNAKTKPREEQYNSTYRVVSVLTVLHQDWLNGKEYKCKVSNKALPAPIEKTISKAKGQPREPQVYTLPPSREEMTKNQVSLTCLVKGFYPSDIAVEWESNGQPENNYKTTPPVLDSDGSFFLYSKLTVDKSRWQQGNVFSCSVMHEALHNHYTQKSLSLSPGK
light: DIVMTQSPSSLSASVGDRVTITCRASQSISSYLNWYQQKPGKAPKLLIYAASSLQSGVPSRFSGSGSGTDFTLTISSLQPEDFATYYCQQSVGLFFGGGTKVEIKRTVAAPSVFIFPPSDEQLKSGTASVVCLLNNFYPREAKVQWKVDNALQSGNSQESVTEQDSKDSTYSLSSTLTLSKADYEKHKVYACEVTHQGLSSPVTKSFNRGEC
notes: fully human IgG1; VH of Ab96 with VL of Ab123
For the molecule B1, the 50% effective concentration (EC50) (usually the concentration needed to bring the measured effect to its halfway point) amounted to 0.111 nM in assay [1] and 0.077 nM in assay [2].

B2: Abcs35-J (antibody, human IgG1, kappa)
heavy: B1 heavy with D82E
light: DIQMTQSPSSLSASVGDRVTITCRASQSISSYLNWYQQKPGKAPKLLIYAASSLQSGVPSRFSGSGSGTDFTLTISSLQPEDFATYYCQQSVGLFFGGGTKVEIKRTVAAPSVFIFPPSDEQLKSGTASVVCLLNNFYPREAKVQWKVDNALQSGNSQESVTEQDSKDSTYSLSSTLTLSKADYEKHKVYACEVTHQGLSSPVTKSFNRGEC
notes: germlined variant of Abcs35; also called ABCS-J
As for B2, the values for the EC50 in assay [1] and in assay [2] were 0.099 nM and 0.079 nM, respectively.
